Reference: patent publication US20170114146A1 (Hoffmann-La Roche, published 2017)

B1: CD33 CD3 TCB molecule B ("2+1 IgG CrossFab, inverted" with charge modifications, CD33 binders based on anti-CD33 antibody 2) (bispecific antibody)
chain 1: EVQLLESGGGLVQPGGSLRLSCAASGFTFSTYAMNWVRQAPGKGLEWVSRIRSKYNNYATYYADSVKGRFTISRDDSKNTLYLQMNSLRAEDTAVYYCVRHGNFGNSYVSWFAYWGQGTLVTVSSASVAAPSVFIFPPSDEQLKSGTASVVCLLNNFYPREAKVQWKVDNALQSGNSQESVTEQDSKDSTYSLSSTLTLSKADYEKHKVYACEVTHQGLSSPVTKSFNRGEC
chain 2: EVQLVQSGAEVKKPGSSVKVSCKASGYTITDSNIHWVRQAPGQSLEWIGYIYPYNGGTDYNQKFKNRATLTVDNPTNTAYMELSSLRSEDTAFYYCVNGNPWLAYWGQGTLVTVSSASTKGPSVFPLAPSSKSTSGGTAALGCLVEDYFPEPVTVSWNSGALTSGVHTFPAVLQSSGLYSLSSVVTVPSSSLGTQTYICNVNHKPSNTKVDEKVEPKSCDKTHTCPPCPAPEAAGGPSVFLFPPKPKDTLMISRTPEVTCVVVDVSHEDPEVKFNWYVDGVEVHNAKTKPREEQYNSTYRVVSVLTVLHQDWLNGKEYKCKVSNKALGAPIEKTISKAKGQPREPQVCTLPPSRDELTKNQVSLSCAVKGFYPSDIAVEWESNGQPENNYKTTPPVLDSDGSFFLVSKLTVDKSRWQQGNVFSCSVMHEALHNHYTQKSLSLSP
chain 3: not shown
chain 4: DIQLTQSPSTLSASVGDRVTITCRASESLDNYGIRFLTWFQQKPGKAPKLLMYAASNQGSGVPSRFSGSGSGTEFTLTISSLQPDDFATYYCQQTKEVPWSFGQGTKVEVKRTVAAPSVFIFPPSDRKLKSGTASVVCLLNNFYPREAKVQWKVDNALQSGNSQESVTEQDSKDSTYSLSSTLTLSKADYEKHKVYACEVTHQGLSSPVTKSFNRGEC
B2: CD33 CD3 TCB molecule A ("2+1 IgG CrossFab, inverted" with charge modifications, CD33 binders based on anti-CD33 antibody 1) (bispecific antibody)
chain 1: QVQLVQSGAEVKKPGSSVKVSCKASGYTFTDYNMHWVRQAPGQGLEWIGYIYPYNGGTGYNQKFKSKATITADESTNTAYMELSSLRSEDTAVYYCARGRPAMDYWGQGTLVTVSSASTKGPSVFPLAPSSKSTSGGTAALGCLVEDYFPEPVTVSWNSGALTSGVHTFPAVLQSSGLYSLSSVVTVPSSSLGTQTYICNVNHKPSNTKVDEKVEPKSCDKTHTCPPCPAPEAAGGPSVFLFPPKPKDTLMISRTPEVTCVVVDVSHEDPEVKFNWYVDGVEVHNAKTKPREEQYNSTYRVVSVLTVLHQDWLNGKEYKCKVSNKALGAPIEKTISKAKGQPREPQVCTLPPSRDELTKNQVSLSCAVKGFYPSDIAVEWESNGQPENNYKTTPPVLDSDGSFFLVSKLTVDKSRWQQGNVFSCSVMHEALHNHYTQKSLSLSP
chain 2: not shown
chain 3: B1 chain 1
chain 4: DIQMTQSPSSLSASVGDRVTITCRASESVDNYGISFMNWFQQKPGKAPKLLIYAASNQGSGVPSRFSGSGSGTDFTLTISSLQPDDFATYYCQQSKEVPWTFGQGTKVEIKRTVAAPSVFIFPPSDRKLKSGTASVVCLLNNFYPREAKVQWKVDNALQSGNSQESVTEQDSKDSTYSLSSTLTLSKADYEKHKVYACEVTHQGLSSPVTKSFNRGEC

Tests used:
Test in all cases: cell-based or functional assay
[1] = target: T1, CD33 (myeloid cell surface antigen CD33) on human AML cell lines HL-60 and HEL (human, UniProt P20138 18-364)
T1 sequence (P20138 18-364): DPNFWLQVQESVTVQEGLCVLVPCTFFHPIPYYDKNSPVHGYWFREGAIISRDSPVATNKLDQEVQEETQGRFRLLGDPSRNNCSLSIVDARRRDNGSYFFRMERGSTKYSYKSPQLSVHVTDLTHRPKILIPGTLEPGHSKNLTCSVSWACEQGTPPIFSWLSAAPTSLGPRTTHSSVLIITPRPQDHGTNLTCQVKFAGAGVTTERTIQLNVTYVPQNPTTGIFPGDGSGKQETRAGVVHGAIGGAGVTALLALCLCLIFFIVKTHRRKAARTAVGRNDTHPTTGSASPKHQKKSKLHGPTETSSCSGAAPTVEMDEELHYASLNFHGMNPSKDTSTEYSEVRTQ

[2] = target: CD3 antigen expressed on Jurkat-NFAT reporter cells (human, UniProt P07766 23-207)
Chain of CD3 antigen expressed on Jurkat-NFAT reporter cells (P07766 23-207 limits assumed): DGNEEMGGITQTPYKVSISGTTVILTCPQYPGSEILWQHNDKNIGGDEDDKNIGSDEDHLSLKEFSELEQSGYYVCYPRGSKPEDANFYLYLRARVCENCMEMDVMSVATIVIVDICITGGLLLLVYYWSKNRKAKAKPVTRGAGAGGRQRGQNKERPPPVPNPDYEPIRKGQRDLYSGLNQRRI

[3] = target: T1, CD33 (myeloid cell surface antigen …); remark: listed apart in the source

Row | Binder | EC50, activation of Jurkat-NFAT reporter cells via CD3 (luminescence, 5 h, HL-60 target cells, E:T 2.5:1) [1] | EC50, activation of Jurkat-NFAT reporter cells via CD3 (luminescence, 5 h, HL-60 target cells, E:T 2.5:1) [2] | EC50 [pM] 42 h, T-cell mediated killing of HL-60 tumor cells (LDH release, human pan T cells, E:T 5:1) [3]
1 | B1 | 0.0043 nM | 0.0043 nM | 18.5 pM
2 | B2 | 0.0794 nM | 0.0794 nM | 19.8 pM
